Test results taken from the supplement of paper PMC9170038.

Test system: K4 kissing-loop RNA reporter
Experiment: apparent KD of K4 kissing-loop reporter; higher = weaker reporter binding
Conditions: Eterna round: R107; input ligand: theophylline 20 uM
Experimental: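 RNA-MaP round R107: designed RNA switches with theophylline, tryptophan, arginine or FMN aptamers are transcribed on-chip within common flanks. They are titrated with a labelled K4 kissing-loop RNA reporter in RNA-MaP buffer (100 mM Tris pH 7.5, 80 mM KCl, 4 mM MgCl2), without ligand or with the indicated ligand. Median apparent KD per design.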
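Also: bound reporter read as fluorescence of individual clusters on recovered sequencing chips by microscopy, with normalized cluster intensities fitted with a binding model.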

Row | Sequence | apparent KD of K4 kissing-loop reporter
1 | GCCGUACGCAUGGAUACCAGCACAGGCCGAAGUGAUGUUUCGUGCGUAUAUUUGUGCUACUGCCCUUGGCAGCCAUGCGUACGGC | 66.5 nM
2 | CCGAUACAUUAUUCUACGGCCGAGAGUGAUACCAGCCAUAUUUAUGGCCCUUGGCAGCGCAGAUGCAGUGAUGUUGCAUACUUAC [Same State Theophylline A GF 19] | 115 nM
3 | GGUCGAGUGAUGUUCGAUGUUAUGCAUUCAGAGGAUAUAGGAUUAGCUAGAAGGCUGAAUCAAUCUUCGAGUGAUGUUCGAGGAU [Same State FMN A GF 9] | 123 nM
4 | AACUUAAUUUAUAAGCAGUGAUGUUGCUCACGAGGACCGGUACGGCCGCCACUCGAUCGGACUUAGGUCUUCAAUUAUUUCAUUA [JR_ExcTryptoA_Sub017] | 199 nM
5 | GAUUGAGUGAUGUUCAAUUAGUAUCUAGAUACCAGAAUGUCUACCUUCCCUUGGCAGCUACUGACGGUGAUCAUUUCGCGCGCAG [theeternabot_sameState_KL_Theo_A_19] | 253 nM
6 | GGAUCCACCAGUGAUGUUGGAGAAAACUCCAAGGAUAUGACGAAAGUCAGAAGGUGGUAGACUGGACAAAGUCCGGUGGGAUCCA [FmnA10 G78] | 438 nM
7 | UUUUUAUAAGAGGAUACCAGUACAAAUAAAGUACAUUAAUAGUAGAGUGAUGUUCUAAAGUACCCUUGGCAGCUUAGAGUAAGUU [ExTheophylB.C] | 239 nM
8 | UUCGAUCAGUGAUGUUGAUCAAUAGUCGAAGGAGCGCUAUAGAUAGCAGGUAGGUCGCGACUACAAGGUGUUAAGACACCUCGAA [Arg A SS t9] | 443 nM
9 | GUAUUGUGAAUGGAUACCAGACACCCGAGUGAUGUUCGGAGCAGAGUGAUGUUCUAAUAAGUCCCUUGGCAGCCGGAAGCAGCCG [Same State Theophylline B GF 3] | 392 nM
10 | AGUUCUUGCCGAAGGAGCGAGGCAGAGUGAUGUUCUGCAGAGGUCGAAAGACCUCAACUGCCUCAGGUAGGUCGCGGCAUGAACA [Omei KL Arginine B Exc A v6] | 469 nM
11 | CUGCAACAUAACUUCUUCGUCCUAGAAGACUAGGAUAUCAGGAAACUGAGAAGGAGUCUCUGCAGUGAUGUUGCAGUUAGGACGA [KL-SSFMN-A7] | 160 nM

Same assay, conditions: Eterna round: R107; input ligand: tryptophan 2.4 mM

Row | Sequence | apparent KD of K4 kissing-loop reporter
12 | GGCCCGGGCUCGGCCGCCACUCCCUCGUACCGCAAGGUAUGAUACCGAGUGAUGUUCGGUUGGAGGAGGACCGGGAGCCCGGGCC [#2 Exclusion - Tryptophan B Attempt #6 (HarryS)] | 102 nM
13 | AAAAUAAAUAGCAGUCACGGAGUGAUGUUCCGAGGACCGGUACGGCCGCCACUCGACCAGACAAAGUCUGGAGGCGGAGACUGCA [#SwitchBubble 20 #K4Early] | 162 nM
14 | AAUCUCGUCCUGGAUACCAGUCGCACGGUUUGUCAUGUCAGCCAGUGAUGUUGCCUGCAUGACCCUUGGCAGCCAUUCUAUGAAU [theeternabot_exclusion_KL_Theo_B_45] | 246 nM
15 | GCAGUGAUGUUGCUGAUGUGCAGUGGUAGUCGAGGACCGGUACGGCCGCCACUCGGUGAGAAUUUGUUAAUACAUCGAUAAGUGA [XVI] | 707 nM
16 | UGAUACCAGACUGAUACCAGCAGUGAUGUUGCUGAUAAGGGUAGAGUCAAAGACUCUACCUGCCCUUGGCAGCAGUCUGGUAUCU [TheoBX 14 #SwitchBubble #StaticStem] | 156 nM
17 | AAAUGACAAGUAAUAAAGAAAAGCGGCGAUACCAGUAAGAACGUAUACCCUUGGCAGCGCAUAUUAGAGUGAUGUUCUAAUCCGA [theeternabot_sameState_KL_Theo_A_25] | 99.3 nM
18 | AAUUUGGGUUCGGCCGCCACUCCAGUGAUGUUGGAUGGCGAAAUAAAGGCUAGACCAGGUUGCCGGAGGACCGGGAAUCCUGUAC [Qumabi] | 112 nM
19 | UAGUCCUAGUGAUGGUUAUCACGUGGUGGGCGAGGACCGGUACGGCCGCCACUCGACUAUGCAGUGAUGUUGCAAUCCGGACAAU [Exclusion - Tryptophan A (Freestyle 16)] | 116 nM
20 | AGGGUAAGGCGUUAACAUGACACCUGGGAAGGAGCGCGGUACACCGCAGGUAGGUCGCCCAGUGAUGUUGGGUGUAAGUAUGAGU [KL-XArg-A23] | 115 nM
21 | GAGAUAGAGGCGGCCGCCACUAGUGAUGUUAGUGAUGUUAGAUAGAGAAUAGAACAGAGAUAGGAUAGGACCGGGCCAGAUAGAG [Tryptophan B Exclusion; Euphoria Solution] | 68.6 nM
22 | AAUAAUCUAGGUGAUACCAGCUCAACAUGAGUGAUGUUCGUGAGCUAAUGUAGAGUUGAGAGCCCUUGGCAGCACCUAGAUAAUA [KL-SSTheoB7] | 626 nM
23 | CACCAUGAAUUCUCUAGGAGUGAUGUUUUUCGAGGACCGGUACGGCCGCCACUCGGACGAGGACCGUGGGAGCGGCGAAGCGGCU [?oegmullin] | 104 nM
24 | UCCGAGCUUAUUGAUACCAGUUCGGCGAGCUACUAGAGUGAUGUUCUUGUAAGCGUACACAACCCUUGGCAGCAAUAGAGGAGGU [theeternabot_sameState_KL_Theo_B_37] | 135 nM
25 | UCCUAGACUUAGCUAGGUAUAUAAUACGAUACCAGUCUAGAGAUAGACCCUUGGCAGCGUAGGCAGUGAUGUUGCCACUAGCUGA [Theo B SS t7a] | 101 nM
26 | GCCCUCUUAACGGCCGCCACUAUAUUUAUGAUCUCUAGUAAGUGAUGUUUACUCCGGCUUAUAGGUAGGACCGGGUUAUUAUCUU [theeternabot_sameState_KL_Trp_B_39] | 181 nM
27 | UAAUGGUAAGUGAUGUUUACCUGGAACGAUACCAGUCGCCAUGAGGACCCUUGGCAGCGUCACACAGCCUUCUAGUUGUGGUCUU [theeternabot_sameState_KL_Theo_A_46] | 353 nM
28 | UAUAUAGUGACGGCCGCCACUAUAUUAAUGUUUUUGUUAGAGUGAUGUUUUGUUUUUUAAUUUUAUAGGACCGGGUUAUAUGUUA [xnxmullin] | 188 nM
29 | ACGUGUCACUGAAGGAGCGUCUACCGAAUACGAGUGAUGUUCGUACACCACUGAUAUAGUGGACAGGUAGGUCGCAGUGAUACGU [Arg B Ex t3] | 107 nM
30 | CCUCUCCUUGAUAGUGAUGUUAUCAAGGACAAGGAUAUCAUCUCAAUGAGAAGGUGUCCUUGAUAACAUGGAGGUCUGAAACAGA [Omei KL FMN A Exc C v1] | 122 nM
31 | AAACAUCACUGGGAGUGAUGUUCUCAGUGACGAGGACCGGUACGGCCGCCACUCGCGAGAGAUAUAGUCAAGUAAUGACUGCAUU [Excl Tryptophan A V9] | 413 nM
32 | AAUGUAUACUGAAGGAGCGAGUAGUGGAAACAUAAACUCAAUGCGAGUGAUGUUCGCAGUACUCAGGUAGGUCGCAGUAAUGGUA [Exclusion Arginine B Gf 8] | 406 nM

Row | Sequence | apparent KD of K4 kissing-loop reporter
33 | GCAAAGUGUCAUAUUAUCUAGCAGCUGCGAAAGGAUAUGAGAGUGCUCAGAAGGUUCUUGGCGGAGUGAUGUUCCGCGUAAAUGG [theeternabot_exclusion_KL_FMN_A_22] | 81.4 nM
34 | GGAUUUGAAAGUGAGUGAUGUUCAUGUUGUGAGGAUAUGUAGAGAUAUAGAAGGCACGUUUGUAUUUUUUUUGUGUGAGAUUAAA [Last Minute #1] | 65.5 nM
35 | UGUACCGAGUCAGGAUAUGGUAUACCGGAAACGGACCAGUGAUGUUGGAGGCGAAAGCCAUAAAAUCCAGAAGGGACUUGGUACU [FmnBS 19 #SwitchBubble #StaticStem #DoubleMagnetSystem] | 411 nM
36 | UUUUUGGAGAAUUAUAGUGAUGUUAUGAAGGAGGAUAUCUAAAGAUGGAGAAGGUUUAAUAGUUAAGGGAUGGAGGGUGGGUGGG [ExFMNA.Q] | 229 nM
37 | AAGUUUUAUAAACUCAUGGUUUCGACAGAUACCAGCUUCGAGAGGAGCCCUUGGCAGCUGCAUGAGUGAUGUUCAUGUACGAAGA [KL-XTheoA8] | 359 nM
38 | AGGUUUUGAUUAGGAUAUGCACUGAGGAGGAGAAUAUAGUGAUGUUAUAUAAGAGGAAGUAGUAGAGUAGAAGGGAUUGAGGUUU [SSFMNB.S] | 158 nM
39 | CGUUUAUAGCAGGAUACCAGUACCCAUAAAGUACGUUAAUAGUAGAGUGAUGUUCUAAAGUACCCUUGGCAGCUUCCCGUGACUG [ExTheophylB.U] | 52.9 nM
40 | AGGGAUGUUAAAGGAUAUAGAAAGUGAUGUUAGAAAGUGAGUGAUGUUGAUGUAAGUGAUGAUAUGUUAGAAGGUUAACAAAACG [abc] | 144 nM
41 | CGCGCCCGGCCGGAUACCAGUGACCCGCUGGGAACCGCGGGCCCAGAGUGAUGUUCGGGACACCCUUGGCAGCCGCCUGGGCGUG [#2 Same State - Theophylline B Attempt #5 (HarryS)] | 550 nM
42 | GGAGUCCCGUUAGAUUGUGUAGAUACAAGACGAGGACCGGUACGGCCGCCACUCGCCAUCGUCCAGUGAUGUUGGGCGUCACGGG [theeternabot_sameState_KL_Trp_A_30] | 219 nM
43 | GCCGUACGCAUGGAUACCAGCACAGGCCGAAGUGAUGUUUCGUGCGUAUAUUUGUGCUACUGCCCUUGGCAGCCAUGCGUACGGC | 75.2 nM
44 | CCGAUACAUUAUUCUACGGCCGAGAGUGAUACCAGCCAUAUUUAUGGCCCUUGGCAGCGCAGAUGCAGUGAUGUUGCAUACUUAC [Same State Theophylline A GF 19] | 73.7 nM
45 | GGUCGAGUGAUGUUCGAUGUUAUGCAUUCAGAGGAUAUAGGAUUAGCUAGAAGGCUGAAUCAAUCUUCGAGUGAUGUUCGAGGAU [Same State FMN A GF 9] | 112 nM
46 | AACUUAAUUUAUAAGCAGUGAUGUUGCUCACGAGGACCGGUACGGCCGCCACUCGAUCGGACUUAGGUCUUCAAUUAUUUCAUUA [JR_ExcTryptoA_Sub017] | 145 nM
47 | GAUUGAGUGAUGUUCAAUUAGUAUCUAGAUACCAGAAUGUCUACCUUCCCUUGGCAGCUACUGACGGUGAUCAUUUCGCGCGCAG [theeternabot_sameState_KL_Theo_A_19] | 195 nM
48 | GGAUCCACCAGUGAUGUUGGAGAAAACUCCAAGGAUAUGACGAAAGUCAGAAGGUGGUAGACUGGACAAAGUCCGGUGGGAUCCA [FmnA10 G78] | 88.7 nM
49 | UUUUUAUAAGAGGAUACCAGUACAAAUAAAGUACAUUAAUAGUAGAGUGAUGUUCUAAAGUACCCUUGGCAGCUUAGAGUAAGUU [ExTheophylB.C] | 115 nM
50 | UUCGAUCAGUGAUGUUGAUCAAUAGUCGAAGGAGCGCUAUAGAUAGCAGGUAGGUCGCGACUACAAGGUGUUAAGACACCUCGAA [Arg A SS t9] | 431 nM
51 | GUAUUGUGAAUGGAUACCAGACACCCGAGUGAUGUUCGGAGCAGAGUGAUGUUCUAAUAAGUCCCUUGGCAGCCGGAAGCAGCCG [Same State Theophylline B GF 3] | 242 nM
52 | AGUUCUUGCCGAAGGAGCGAGGCAGAGUGAUGUUCUGCAGAGGUCGAAAGACCUCAACUGCCUCAGGUAGGUCGCGGCAUGAACA [Omei KL Arginine B Exc A v6] | 476 nM
53 | CUGCAACAUAACUUCUUCGUCCUAGAAGACUAGGAUAUCAGGAAACUGAGAAGGAGUCUCUGCAGUGAUGUUGCAGUUAGGACGA [KL-SSFMN-A7] | 138 nM
